Reference: patent US10087225B2, “Formulation of MK2 inhibitor peptides” (MOERAE MATRIX, INC., priority 2015, dated 2018)

What was measured:
Assay in all cases: Kinase Profiling Assay
Assay type in all cases: biochemical
[1] = target: T1, JAK3(h) (Homo sapiens, UniProt P52333)
T1 sequence (P52333 1-1124): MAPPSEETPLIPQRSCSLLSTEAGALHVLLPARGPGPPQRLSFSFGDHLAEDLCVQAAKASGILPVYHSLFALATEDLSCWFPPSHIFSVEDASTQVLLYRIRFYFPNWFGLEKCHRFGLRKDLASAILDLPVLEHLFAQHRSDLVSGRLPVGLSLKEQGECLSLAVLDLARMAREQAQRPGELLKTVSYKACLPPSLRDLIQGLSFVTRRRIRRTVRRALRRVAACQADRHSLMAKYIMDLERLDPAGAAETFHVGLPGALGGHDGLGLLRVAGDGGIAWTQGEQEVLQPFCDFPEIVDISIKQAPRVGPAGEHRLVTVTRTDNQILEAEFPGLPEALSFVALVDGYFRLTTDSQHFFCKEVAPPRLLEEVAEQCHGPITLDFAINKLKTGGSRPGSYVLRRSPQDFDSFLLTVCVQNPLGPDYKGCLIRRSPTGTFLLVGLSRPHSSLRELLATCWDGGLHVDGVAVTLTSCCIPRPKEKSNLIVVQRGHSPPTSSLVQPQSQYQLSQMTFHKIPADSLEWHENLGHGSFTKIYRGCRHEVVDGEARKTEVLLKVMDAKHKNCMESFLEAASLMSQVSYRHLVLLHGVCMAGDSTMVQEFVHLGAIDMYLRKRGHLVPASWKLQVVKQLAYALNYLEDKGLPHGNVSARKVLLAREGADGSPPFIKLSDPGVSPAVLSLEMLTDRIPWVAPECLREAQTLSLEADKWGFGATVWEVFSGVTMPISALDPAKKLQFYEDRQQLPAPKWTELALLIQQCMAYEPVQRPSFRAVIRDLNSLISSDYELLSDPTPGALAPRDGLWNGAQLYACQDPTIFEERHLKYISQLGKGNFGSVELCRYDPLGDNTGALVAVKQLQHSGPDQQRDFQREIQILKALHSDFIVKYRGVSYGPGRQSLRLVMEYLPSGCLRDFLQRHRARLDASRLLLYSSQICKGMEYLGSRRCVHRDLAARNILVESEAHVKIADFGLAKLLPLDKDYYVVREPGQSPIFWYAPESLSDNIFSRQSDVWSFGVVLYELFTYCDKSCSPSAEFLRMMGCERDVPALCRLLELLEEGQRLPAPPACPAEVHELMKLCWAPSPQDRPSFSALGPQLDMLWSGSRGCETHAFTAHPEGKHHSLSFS

[2] = target: T2, TAO3(h) (Homo sapiens, UniProt Q9H2K8)
T2 sequence (Q9H2K8 1-898): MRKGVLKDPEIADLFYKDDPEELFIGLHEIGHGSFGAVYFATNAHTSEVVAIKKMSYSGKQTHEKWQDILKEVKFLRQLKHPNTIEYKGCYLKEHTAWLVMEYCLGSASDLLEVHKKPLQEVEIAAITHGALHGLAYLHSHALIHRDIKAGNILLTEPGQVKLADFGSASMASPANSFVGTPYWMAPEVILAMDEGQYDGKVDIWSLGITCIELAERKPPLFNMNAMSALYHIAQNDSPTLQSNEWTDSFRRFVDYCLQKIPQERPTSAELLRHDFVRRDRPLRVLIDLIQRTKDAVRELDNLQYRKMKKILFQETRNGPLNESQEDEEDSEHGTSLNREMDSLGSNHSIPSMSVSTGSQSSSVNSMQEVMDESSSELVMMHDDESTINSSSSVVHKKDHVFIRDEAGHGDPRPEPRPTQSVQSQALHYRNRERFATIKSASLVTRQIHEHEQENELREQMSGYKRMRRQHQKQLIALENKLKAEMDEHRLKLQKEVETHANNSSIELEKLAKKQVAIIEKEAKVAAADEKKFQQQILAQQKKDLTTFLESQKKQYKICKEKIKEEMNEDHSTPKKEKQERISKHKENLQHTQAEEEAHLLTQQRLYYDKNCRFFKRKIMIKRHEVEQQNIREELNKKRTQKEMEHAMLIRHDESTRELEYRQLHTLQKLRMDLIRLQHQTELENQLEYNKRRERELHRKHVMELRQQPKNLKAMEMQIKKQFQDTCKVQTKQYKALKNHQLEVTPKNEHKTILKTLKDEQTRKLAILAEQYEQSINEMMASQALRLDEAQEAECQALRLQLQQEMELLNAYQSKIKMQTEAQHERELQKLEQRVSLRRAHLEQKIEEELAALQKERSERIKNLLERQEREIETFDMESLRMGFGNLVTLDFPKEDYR

[3] = target: mTOR(h) (Homo sapiens, UniProt P42345); conditions: 100 μM
[4] = target: PKA(h) (Homo sapiens, UniProt P17612); conditions: 100 μM
[5] = target: CK1δ(h) (Homo sapiens, UniProt P48730); conditions: 100 μM
Sequence of CK1δ(h) (P48730 whole entry): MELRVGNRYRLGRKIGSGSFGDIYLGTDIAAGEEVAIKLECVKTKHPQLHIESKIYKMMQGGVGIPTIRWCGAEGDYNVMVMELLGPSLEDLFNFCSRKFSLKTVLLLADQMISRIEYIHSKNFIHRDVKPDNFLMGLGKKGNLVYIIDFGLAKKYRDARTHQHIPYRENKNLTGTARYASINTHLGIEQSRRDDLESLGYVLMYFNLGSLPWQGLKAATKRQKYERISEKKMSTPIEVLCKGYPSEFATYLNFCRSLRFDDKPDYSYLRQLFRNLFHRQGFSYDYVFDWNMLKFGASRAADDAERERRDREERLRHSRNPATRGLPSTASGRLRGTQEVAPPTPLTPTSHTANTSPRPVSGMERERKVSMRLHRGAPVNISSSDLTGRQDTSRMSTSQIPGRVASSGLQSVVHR

[6] = target: CaMKIIβ(h) (Homo sapiens, UniProt Q13554); conditions: 100 μM
Sequence of CaMKIIβ(h) (Q13554 whole entry): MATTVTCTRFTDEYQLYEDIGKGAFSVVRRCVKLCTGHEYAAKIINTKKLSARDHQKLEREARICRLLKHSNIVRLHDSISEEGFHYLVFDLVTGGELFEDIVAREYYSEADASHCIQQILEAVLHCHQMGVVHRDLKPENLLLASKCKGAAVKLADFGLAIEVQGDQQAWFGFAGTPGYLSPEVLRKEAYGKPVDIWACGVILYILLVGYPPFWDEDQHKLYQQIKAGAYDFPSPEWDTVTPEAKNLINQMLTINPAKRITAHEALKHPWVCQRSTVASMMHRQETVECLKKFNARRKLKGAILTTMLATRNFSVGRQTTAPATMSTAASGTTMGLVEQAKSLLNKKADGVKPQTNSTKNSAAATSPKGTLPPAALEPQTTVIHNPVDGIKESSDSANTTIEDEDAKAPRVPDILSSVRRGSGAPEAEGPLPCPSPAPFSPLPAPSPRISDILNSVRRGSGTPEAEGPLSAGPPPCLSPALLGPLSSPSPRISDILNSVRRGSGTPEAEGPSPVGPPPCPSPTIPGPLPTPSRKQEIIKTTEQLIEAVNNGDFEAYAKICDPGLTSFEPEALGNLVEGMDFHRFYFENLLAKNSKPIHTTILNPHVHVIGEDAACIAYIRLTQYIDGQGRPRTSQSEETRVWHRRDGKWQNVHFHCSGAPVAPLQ

[7] = target: MSK1(h) (Homo sapiens, UniProt O75582); conditions: 100 μM
Sequence of MSK1(h) (O75582 whole entry): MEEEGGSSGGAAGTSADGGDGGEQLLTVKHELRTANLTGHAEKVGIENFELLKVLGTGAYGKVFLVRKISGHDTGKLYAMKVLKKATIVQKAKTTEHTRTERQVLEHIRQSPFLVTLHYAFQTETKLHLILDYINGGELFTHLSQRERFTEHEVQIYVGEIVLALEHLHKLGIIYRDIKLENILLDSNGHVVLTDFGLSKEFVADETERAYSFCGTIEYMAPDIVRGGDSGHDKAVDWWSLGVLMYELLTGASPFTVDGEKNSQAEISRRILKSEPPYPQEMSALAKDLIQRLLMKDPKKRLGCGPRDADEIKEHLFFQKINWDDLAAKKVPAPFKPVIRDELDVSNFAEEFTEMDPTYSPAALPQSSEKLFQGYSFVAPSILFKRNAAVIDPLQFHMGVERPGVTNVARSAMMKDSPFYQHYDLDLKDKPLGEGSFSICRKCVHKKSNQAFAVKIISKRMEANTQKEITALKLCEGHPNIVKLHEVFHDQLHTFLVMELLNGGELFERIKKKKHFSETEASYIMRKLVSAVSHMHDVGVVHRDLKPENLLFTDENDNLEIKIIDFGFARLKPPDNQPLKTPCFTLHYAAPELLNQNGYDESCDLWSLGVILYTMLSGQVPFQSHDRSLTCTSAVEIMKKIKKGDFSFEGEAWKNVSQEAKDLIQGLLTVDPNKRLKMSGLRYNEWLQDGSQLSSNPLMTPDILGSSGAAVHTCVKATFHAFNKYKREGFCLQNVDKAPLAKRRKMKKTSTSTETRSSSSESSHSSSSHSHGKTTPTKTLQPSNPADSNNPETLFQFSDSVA

[8] = target: T3, MST1(h) (Homo sapiens, UniProt Q13043); conditions: 100 μM
T3 sequence (Q13043 1-487): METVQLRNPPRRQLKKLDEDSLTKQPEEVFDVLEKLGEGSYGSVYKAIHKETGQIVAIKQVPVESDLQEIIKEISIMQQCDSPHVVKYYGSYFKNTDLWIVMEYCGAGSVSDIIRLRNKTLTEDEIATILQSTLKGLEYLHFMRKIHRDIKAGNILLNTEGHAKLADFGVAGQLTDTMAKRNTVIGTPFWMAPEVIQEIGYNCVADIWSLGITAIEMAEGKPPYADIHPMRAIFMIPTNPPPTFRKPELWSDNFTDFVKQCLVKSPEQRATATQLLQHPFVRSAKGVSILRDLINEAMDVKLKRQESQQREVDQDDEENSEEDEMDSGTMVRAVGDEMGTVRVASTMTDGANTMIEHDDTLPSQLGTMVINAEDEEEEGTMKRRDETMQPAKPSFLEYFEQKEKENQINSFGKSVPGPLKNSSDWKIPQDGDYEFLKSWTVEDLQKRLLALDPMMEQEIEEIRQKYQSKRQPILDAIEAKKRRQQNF

[9] = target: PDGFRα(h) (Homo sapiens, UniProt P16234); conditions: 100 μM
Sequence of PDGFRα(h) (P16234 24-1089): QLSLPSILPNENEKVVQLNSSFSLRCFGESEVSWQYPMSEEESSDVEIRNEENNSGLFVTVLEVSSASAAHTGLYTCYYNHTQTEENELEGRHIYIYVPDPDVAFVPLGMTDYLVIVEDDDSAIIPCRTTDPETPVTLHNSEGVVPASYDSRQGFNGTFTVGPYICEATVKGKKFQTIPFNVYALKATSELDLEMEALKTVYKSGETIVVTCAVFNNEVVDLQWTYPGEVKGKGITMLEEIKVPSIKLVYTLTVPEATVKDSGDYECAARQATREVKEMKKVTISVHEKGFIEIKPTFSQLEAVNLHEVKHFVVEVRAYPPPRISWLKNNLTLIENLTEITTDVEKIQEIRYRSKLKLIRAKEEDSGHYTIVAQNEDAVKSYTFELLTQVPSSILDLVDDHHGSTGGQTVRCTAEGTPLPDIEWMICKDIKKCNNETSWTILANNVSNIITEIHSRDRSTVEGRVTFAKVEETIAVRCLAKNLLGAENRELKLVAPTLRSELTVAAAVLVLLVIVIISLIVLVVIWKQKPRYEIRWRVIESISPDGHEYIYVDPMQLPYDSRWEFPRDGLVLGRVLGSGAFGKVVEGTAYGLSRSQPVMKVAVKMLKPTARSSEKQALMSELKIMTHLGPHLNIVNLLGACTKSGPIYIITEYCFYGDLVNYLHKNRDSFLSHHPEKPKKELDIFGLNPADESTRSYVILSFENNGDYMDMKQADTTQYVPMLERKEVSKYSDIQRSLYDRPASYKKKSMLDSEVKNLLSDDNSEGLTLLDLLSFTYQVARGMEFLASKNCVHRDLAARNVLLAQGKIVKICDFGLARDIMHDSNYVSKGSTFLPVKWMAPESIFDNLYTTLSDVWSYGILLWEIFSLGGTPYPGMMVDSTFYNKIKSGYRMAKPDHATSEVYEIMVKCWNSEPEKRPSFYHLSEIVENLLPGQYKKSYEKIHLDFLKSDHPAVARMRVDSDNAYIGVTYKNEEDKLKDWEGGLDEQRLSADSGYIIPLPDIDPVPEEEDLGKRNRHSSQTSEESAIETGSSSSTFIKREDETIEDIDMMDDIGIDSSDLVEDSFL

Substance	activity at 100 µM [1]	activity at 100 µM [2]	% activity [3]	% activity [4]	% activity [5]	% activity [6]	% activity [7]	% activity [8]	% activity ([1]; 100 μM)	% activity [9]	% activity ([2]; 100 μM)
H-YARAAARQARAKALARQLGVAA-OH [MMI-0100]	150%	45%	–	–	–	–	–	–	–	–	–
HRRIKAWLKKIKALARQLGVAA (Mammalian) [MMI-0500]	–	–	135%	118%	78%	3%	8%	3%	95%	40%	12%
YARAAARQARAKALNRQLGVA (Mammalian) [MMI-0200]	–	–	110%	110%	92%	53%	50%	72%	–	108%	–
